PMC2818874

Target: Cytosolic His-tag version of human IRE1α (IRE1ΔN-HIS) (human)

For “Cytosolic His-tag version of human IRE1α (IRE1ΔN-HIS) (domain or fragment)”, the stoichiometry N was 2.
